From the supplement of paper PMC5998384

Experiments:
HeLa Kyoto [1] = assay: thermal stability score vs G1/S (z-score of summed log2 fold changes over temperatures); higher = more thermally stable than in G1/S
HeLa Kyoto [2] = assay: solubility change mitosis vs G1/S (difference of NP-40 vs SDS log2 ratios) (log2 ratio difference); higher = more soluble in mitosis
HeLa Kyoto [3] = assay: melting temperature (median over replicates), in situ; higher = more thermally stable
HeLa Kyoto [4] = assay: solubility in G1/S (NP-40 vs SDS abundance) (log2 ratio); higher = more soluble; details: cell cycle stage: G1/S
[5] = cell cycle stage: early G1 (4.5 h after nocodazole release)
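Wherever melting temperature (median over replicates), in situ is given: HeLa Kyoto cells synchronized by double thymidine or nocodazole block, proteins quantified by TMT10plex mass spectrometry, three independent biological replicates.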
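Wherever solubility change mitosis vs G1/S (difference of NP-40 vs SDS log2 ratios) is given: synchronized HeLa Kyoto cells (double thymidine block for G1/S, nocodazole release for mitosis), protein amounts in NP-40 versus SDS lysates quantified by mass spectrometry, three biological replicates.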
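Wherever solubility in G1/S (NP-40 vs SDS abundance) is given: HeLa Kyoto cells arrested at G1/S by double thymidine block, proteins quantified by TMT10plex mass spectrometry in mild NP-40 versus SDS extracts, three biological replicates.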
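Wherever thermal stability score vs G1/S (z-score of summed log2 fold changes over temperatures) is given: synchronized HeLa Kyoto cells, proteins quantified by TMT10plex mass spectrometry, three biological replicates, mitosis taken 0.5 h after nocodazole release, G1/S directly after double thymidine block.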

For “MIHSLFLINCSGDIFLEKHWKSVVSQSVCDYFFEAQEKAADVENVPPVISTPHHYLISIYRDKLFFVSVIQTEVPPLFVIEFLHRVADTFQDYFGECSEAAIKDNVVIVYELLEEMLDNGFPLATESNILKELIKPPTILRSVVNSITGSSNVGDTLPTGQLSNIPWRRAGVKYTNNEAYFDVVEEIDAIIDKSGSTVFAEIQGVIDACIKLSGMPDLSLSFMNPRLLDDVSFHPCIRFKRWESERVLSFIPPDGNFRLISYRVSSQNLVAIPVYVKHSISFKENSSCGRFDITIGPKQNMGKTIEGITVTVHMPKVVLNMNLTPTQGSYTFDPVTKVLTWDVGKITPQKLPSLKGLVNLQSGAPKPEENPSLNIQFKIQQLAISGLKVNRLDMYGEKYKPFKGVKYVTKAGKFQVRT [AP3M1]”, the thermal stability score (HeLa Kyoto [1]; [5]) was 0.811, the thermal stability score (HeLa Kyoto [1]; cell cycle stage: mitosis) was 0.722 and the “solubility change mitosis (log2)” value (HeLa Kyoto [2]) was -0.0783. For the same sequence, the melting temperature (HeLa Kyoto [3]; cell cycle stage: G1/S) was 50.8 °C, the melting temperature (HeLa Kyoto [3]; cell cycle stage: mitosis) was 50.1 °C and the “solubility in G1/S (log2)” value (HeLa Kyoto [4]) was -0.0152.

With “MILIPRMLLVLFLLLPILSSAKAQVNPAICRYPLGMSGGQIPDEDITASSQWSESTAAKYGRLDSEEGDGAWCPEIPVEPDDLKEFLQIDLHTLHFITLVGTQGRHAGGHGIEFAPMYKINYSRDGTRWISWRNRHGKQVLDGNSNPYDIFLKDLEPPIVARFVRFIPVTDHSMNVCMRVELYGCVWLDGLVSYNAPAGQQFVLPGGSIIYLNDSVYDGAVGYSMTEGLGQLTDGVSGLDDFTQTHEYHVWPGYDYVGWRNESATNGYIEIMFEFDRIRNFTTMKVHCNNMFAKGVKIFKEVQCYFRSEASEWEPNAISFPLVLDDVNPSARFVTVPLHHRMASAIKCQYHFADTWMMFSEITFQSDAAMYNNSEALPTSPMAPTTYDPMLKVDDSNTRILIGCLVAIIFILLAIIVIILWRQFWQKMLEKASRRMLDDEMTVSLSLPSDSSMFNNNRSSSPSEQGSNSTYDRIFPLRPDYQEPSRLIRKLPEFAPGEEESGCSGVVKPVQPSGPEGVPHYAEADIVNLQGVTGGNTYSVPAVTMDLLSGKDVAVEEFPRKLLTFKEKLGEGQFGEVHLCEVEGMEKFKDKDFALDVSANQPVLVAVKMLRADANKNARNDFLKEIKIMSRLKDPNIIHLLAVCITDDPLCMITEYMENGDLNQFLSRHEPPNSSSSDVRTVSYTNLKFMATQIASGMKYLSSLNFVHRDLATRNCLVGKNYTIKIADFGMSRNLYSGDYYRIQGRAVLPIRWMSWESILLGKFTTASDVWAFGVTLWETFTFCQEQPYSQLSDEQVIENTGEFFRDQGRQTYLPQPAICPDSVYKLMLSCWRRDTKNRPSFQEIHLLLLQQGDE [DDR2]” the thermal stability score (HeLa Kyoto [1]; [5]) was 0.527, the thermal stability score (HeLa Kyoto [1]; cell cycle stage: mitosis) was -1.72 and the “solubility change mitosis (log2)” value (HeLa Kyoto [2]) was 0.0106. For the same sequence, the melting temperature (HeLa Kyoto [3]; cell cycle stage: G1/S) was 50.8 °C, the melting temperature (HeLa Kyoto [3]; cell cycle stage: mitosis) was 51 °C and the “solubility in G1/S (log2)” value (HeLa Kyoto [4]) was -0.114.

With “MIPRKRYGSKNTDQGVYLGLSKTQVLSPATAGSSSSDIAPLPPPVTLVPPPPDTMSCRDRTQEFLSACKSLQTRQNGIQTNKPALRAVRQRSEFTLMAKRIGKDLSNTFAKLEKLTILAKRKSLFDDKAVEIEELTYIIKQDINSLNKQIAQLQDFVRAKGSQSGRHLQTHSNTIVVSLQSKLASMSNDFKSVLEVRTENLKQQRSRREQFSRAPVSALPLAPNHLGGGAVVLGAESHASKDVAIDMMDSRTSQQLQLIDEQDSYIQSRADTMQNIESTIVELGSIFQQLAHMVKEQEETIQRIDENVLGAQLDVEAAHSEILKYFQSVTSNRWLMVKIFLILIVFFIIFVVFLA [STX5]” the thermal stability score (HeLa Kyoto [1]; [5]) was 0.862, the thermal stability score (HeLa Kyoto [1]; cell cycle stage: mitosis) was 1.55 and the “solubility change mitosis (log2)” value (HeLa Kyoto [2]) was -0.103. The melting temperature (HeLa Kyoto [3]; cell cycle stage: G1/S) was 50 °C, the melting temperature (HeLa Kyoto [3]; cell cycle stage: mitosis) was 49.9 °C and the “solubility in G1/S (log2)” value (HeLa Kyoto [4]) was 0.558.

“MIPVAEFKQFTEQQPAFKVLKPWWDVLAEYLTVAMLMIGVFGCTLQVTQDKIICLPNHELQENLSEAPCQQLLPRGIPEQIGALQEVKGLKNNLDLQQYSFINQLCYETALHWYAKYFPYLVVIHTLIFMVCTSFWFKFPGTSSKIEHFISILGKCFDSPWTTRALSEVSGENQKGPAATERAAATIVAMAGTGPGKAGEGEKEKVLAEPEKVVTEPPVVTLLDKKEGEQAKALFEKVKKFRMHVEEGDILYTMYIRQTVLKVCKFLAILVYNLVYVEKISFLVACRVETSEVTGYASFCCNHTKAHLFSKLAFCYISFVCIYGLTCIYTLYWLFHRPLKEYSFRSVREETGMGDIPDVKNDFAFMLHLIDQYDSLYSKRFAVFLSEVSESRLKQLNLNHEWTPEKLRQKLQRNAAGRLELALCMLPGLPDTVFELSEVESLRLEAICDITFPPGLSQLVHLQELSLLHSPARLPFSLQVFLRDHLKVMRVKCEELREVPLWVFGLRGLEELHLEGLFPQELARAATLESLRELKQLKVLSLRSNAGKVPASVTDVAGHLQRLSLHNDGARLVALNSLKKLAALRELELVACGLERIPHAVFSLGALQELDLKDNHLRSIEEILSFQHCRKLVTLRLWHNQIAYVPEHVRKLRSLEQLYLSYNKLETLPSQLGLCSGLRLLDVSHNGLHSLPPEVGLLQNLQHLALSYNALEALPEELFFCRKLRTLLLGDNQLSQLSPHVGALRALSRLELKGNRLEALPEELGNCGGLKKAGLLVEDTLYQGLPAEVRDKMEEE [LRRC8E]” was tested, and the thermal stability score (HeLa Kyoto [1]; [5]) was -1.17, the thermal stability score (HeLa Kyoto [1]; cell cycle stage: mitosis) was -1.48 and the “solubility change mitosis (log2)” value (HeLa Kyoto [2]) was -0.0391. For the same sequence, the melting temperature (HeLa Kyoto [3]; cell cycle stage: G1/S) was 53.2 °C, the melting temperature (HeLa Kyoto [3]; cell cycle stage: mitosis) was 53.1 °C and the “solubility in G1/S (log2)” value (HeLa Kyoto [4]) was 0.0423.

In the case of “MIPVTELRYFADTQPAYRILKPWWDVFTDYISIVMLMIAVFGGTLQVTQDKMICLPCKWVTKDSCNDSFRGWAAPGPEPTYPNSTILPTPDTGPTGIKYDLDRHQYNYVDAVCYENRLHWFAKYFPYLVLLHTLIFLACSNFWFKFPRTSSKLEHFVSILLKCFDSPWTTRALSETVVEESDPKPAFSKMNGSMDKKSSTVSEDVEATVPMLQRTKSRIEQGIVDRSETGVLDKKEGEQAKALFEKVKKFRTHVEEGDIVYRLYMRQTIIKVIKFILIICYTVYYVHNIKFDVDCTVDIESLTGYRTYRCAHPLATLFKILASFYISLVIFYGLICMYTLWWMLRRSLKKYSFESIREESSYSDIPDVKNDFAFMLHLIDQYDPLYSKRFAVFLSEVSENKLRQLNLNNEWTLDKLRQRLTKNAQDKLELHLFMLSGIPDTVFDLVELEVLKLELIPDVTIPPSIAQLTGLKELWLYHTAAKIEAPALAFLRENLRALHIKFTDIKEIPLWIYSLKTLEELHLTGNLSAENNRYIVIDGLRELKRLKVLRLKSNLSKLPQVVTDVGVHLQKLSINNEGTKLIVLNSLKKMANLTELELIRCDLERIPHSIFSLHNLQEIDLKDNNLKTIEEIISFQHLHRLTCLKLWYNHIAYIPIQIGNLTNLERLYLNRNKIEKIPTQLFYCRKLRYLDLSHNNLTFLPADIGLLQNLQNLAITANRIETLPPELFQCRKLRALHLGNNVLQSLPSRVGELTNLTQIELRGNRLECLPVELGECPLLKRSGLVVEEDLFNTLPPEVKERLWRADKEQA [LRRC8A]”, the thermal stability score (HeLa Kyoto [1]; [5]) is reported as -0.642, the thermal stability score (HeLa Kyoto [1]; cell cycle stage: mitosis) is reported as -0.308 and the “solubility change mitosis (log2)” value (HeLa Kyoto [2]) is reported as 0.00706. The melting temperature (HeLa Kyoto [3]; cell cycle stage: G1/S) was 54 °C, the melting temperature (HeLa Kyoto [3]; cell cycle stage: mitosis) was 52.9 °C and the “solubility in G1/S (log2)” value (HeLa Kyoto [4]) was -0.294.

With “MISAAQLLDELMGRDRNLAPDEKRSNVRWDHESVCKYYLCGFCPAELFTNTRSDLGPCEKIHDENLRKQYEKSSRFMKVGYERDFLRYLQSLLAEVERRIRRGHARLALSQNQQSSGAAGPTGKNEEKIQVLTDKIDVLLQQIEELGSEGKVEEAQGMMKLVEQLKEERELLRSTTSTIESFAAQEKQMEVCEVCGAFLIVGDAQSRVDDHLMGKQHMGYAKIKATVEELKEKLRKRTEEPDRDERLKKEKQEREEREKEREREREERERKRRREEEEREKERARDRERRKRSRSRSRHSSRTSDRRCSRSRDHKRSRSRERRRSRSRDRRRSRSHDRSERKHRSRSRDRRRSKSRDRKSYKHRSKSRDREQDRKSKEKEKRGSDDKKSSVKSGSREKQSEDTNTESKESDTKNEVNGTSEDIKSEGDTQSN [LUC7L3]” the thermal stability score (HeLa Kyoto [1]; [5]) was 0.00947, the thermal stability score (HeLa Kyoto [1]; cell cycle stage: mitosis) was 2.68 and the “solubility change mitosis (log2)” value (HeLa Kyoto [2]) was 0.0899. For the same sequence, the melting temperature (HeLa Kyoto [3]; cell cycle stage: G1/S) was 50.1 °C, the melting temperature (HeLa Kyoto [3]; cell cycle stage: mitosis) was 50.8 °C and the “solubility in G1/S (log2)” value (HeLa Kyoto [4]) was -0.95.

For “MKAIKKSLTEEEYLYLDFSHQTEGCIFPLHTSVTLFLLSYCDCKIFKICLVVTKEVSRDSSLLRDDLIQDVEIQIISRQELPPIVQNCCLPAVVERSDNFCRAGLAVVLRHIIQKSYEADPLKKELLELLGFKKTCLKACAEVSQWTRLCELTIPLAIENFLRESSDQPPTIPVEILQLEKKLSEPVRVHNDDKLRRQKLKQQKADGVGPPLTKGKAKSKVHTQETSEGLDSSSKSLELKVAFSKLTVQEEPATTNREPSHIRKAKASDLPPLEHVFAEGLYFTLADIVLLPCIHHFLVIISRKFSEKLVEFPLLASWYQRIQEVPGVKTAASKCGIQFLHLPKLLTTSTEQHPNLCEVPGVEEQSDPLFIGGPRPTMAKLMEKGIEVMFSPHPCPTWTLDWNVLPAAVSPKEGKMSSDRALRKQQQLNNLVYVVTNQAKPGDRIVDFCSGGGHVGIVLAHMLPSCQVTLIENKELSLIRAKKRSDELGLSNIWFIQANMEYFTGMFNIGVALHACGVATDMVIEHCIKTRASFVTCPCCYGFIQNTSKFNFPKSEQFKKTLSYKEHMILCRFADQTAVQLPPQRRLIGKQCMCLVDLDRARAAEECGYSVQVISMEPESCSPKNNMIVGVPI [GSTCD]”, the thermal stability score (HeLa Kyoto [1]; [5]) was -0.282, the thermal stability score (HeLa Kyoto [1]; cell cycle stage: mitosis) was -1.67 and the “solubility change mitosis (log2)” value (HeLa Kyoto [2]) was -0.116. The melting temperature (HeLa Kyoto [3]; cell cycle stage: G1/S) was 51.7 °C, the melting temperature (HeLa Kyoto [3]; cell cycle stage: mitosis) was 53.4 °C and the “solubility in G1/S (log2)” value (HeLa Kyoto [4]) was -0.0129.
